Laboratory results: the supplement of paper PMC9112550, “Optimization of the antimicrobial peptide Bac7 by deep mutational scanning” (BMC Biology, 2022)

The sequences below were run on Escherichia coli TOP10 (assay: shrunken log2 fold change of peptide-encoding DNA abundance (4.5 h post-induction vs induction); higher = less antimicrobial activity (less host growth inhibition)). Conditions: time post-induction: 4.5 h; library: site-saturation at positions 5, 18, 19, 20.
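Further: peptides expressed intracellularly from a pBAD plasmid library in pooled LB shake-flask culture, induced with 0.3% L-arabinose, DNA abundance read by NGS, three biological replicates, DESeq2 with apeglm shrinkage.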

Sequence	shrunken log2 fold change
RRIRCRPPRLPRPRPRPHLDPRP	-0.0622
RRIRCRPPRLPRPRPRPHLSPRP	-0.147
RRIRCRPPRLPRPRPRPHMQPRP	-0.322
RRIRCRPPRLPRPRPRPHMWPRP	-0.555
RRIRCRPPRLPRPRPRPHMYPRP	-0.715
RRIRCRPPRLPRPRPRPHPDPRP	-0.0728
RRIRCRPPRLPRPRPRPHPHPRP	-0.0639
RRIRCRPPRLPRPRPRPHPWPRP	-0.158
RRIRCRPPRLPRPRPRPHQLPRP	-0.465
RRIRCRPPRLPRPRPRPHRPPRP	-0.0186
RRIRCRPPRLPRPRPRPHRYPRP	-0.114
RRIRCRPPRLPRPRPRPHVIPRP	-0.245
RRIRCRPPRLPRPRPRPHVKPRP	-0.284
RRIRCRPPRLPRPRPRPHVVPRP	-0.137
RRIRCRPPRLPRPRPRPHWNPRP	-0.551
RRIRCRPPRLPRPRPRPHYEPRP	-0.442
RRIRCRPPRLPRPRPRPHYSPRP	-0.723
RRIRCRPPRLPRPRPRPIAQPRP	0.00422
RRIRCRPPRLPRPRPRPICAPRP	0.107
RRIRCRPPRLPRPRPRPICHPRP	1.48
RRIRCRPPRLPRPRPRPICTPRP	-0.307
RRIRCRPPRLPRPRPRPIDWPRP	0.0664
RRIRCRPPRLPRPRPRPIEDPRP	0.102
RRIRCRPPRLPRPRPRPIELPRP	-0.0768
RRIRCRPPRLPRPRPRPIERPRP	0.0355

Sequence	shrunken log2 fold change
RRIRCRPPRLPRPRPRPIFRPRP	-0.013
RRIRCRPPRLPRPRPRPIFTPRP	-0.48
RRIRCRPPRLPRPRPRPIGQPRP	0.0567
RRIRCRPPRLPRPRPRPIHIPRP	-0.893
RRIRCRPPRLPRPRPRPIIYPRP	-0.739
RRIRCRPPRLPRPRPRPIKSPRP	-0.185
RRIRCRPPRLPRPRPRPIKVPRP	-0.000403
RRIRCRPPRLPRPRPRPILGPRP	-0.378
RRIRCRPPRLPRPRPRPILSPRP	-0.362
RRIRCRPPRLPRPRPRPILTPRP	-0.302
RRIRCRPPRLPRPRPRPIMRPRP	0.415
RRIRCRPPRLPRPRPRPIPHPRP	-0.744
RRIRCRPPRLPRPRPRPIPSPRP	-0.308
RRIRCRPPRLPRPRPRPIQSPRP	0.0164
RRIRCRPPRLPRPRPRPIRYPRP	-1.42
RRIRCRPPRLPRPRPRPISDPRP	-0.237
RRIRCRPPRLPRPRPRPISMPRP	-0.65
RRIRCRPPRLPRPRPRPITGPRP	-0.213
RRIRCRPPRLPRPRPRPITHPRP	-0.158
RRIRCRPPRLPRPRPRPIVDPRP	0.0181
RRIRCRPPRLPRPRPRPIWWPRP	0.475
RRIRCRPPRLPRPRPRPIYYPRP	-0.653
RRIRCRPPRLPRPRPRPKAMPRP	0.234
RRIRCRPPRLPRPRPRPKAYPRP	-0.0053
RRIRCRPPRLPRPRPRPKCCPRP	0.0554

Sequence	shrunken log2 fold change
RRIRCRPPRLPRPRPRPKCDPRP	-0.135
RRIRCRPPRLPRPRPRPKCFPRP	-0.372
RRIRCRPPRLPRPRPRPKCQPRP	0.201
RRIRCRPPRLPRPRPRPKCTPRP	-0.0914
RRIRCRPPRLPRPRPRPKEEPRP	-0.0302
RRIRCRPPRLPRPRPRPKGFPRP	0.00848
RRIRCRPPRLPRPRPRPKGWPRP	0.811
RRIRCRPPRLPRPRPRPKHKPRP	-0.164
RRIRCRPPRLPRPRPRPKHYPRP	-0.518
RRIRCRPPRLPRPRPRPKIAPRP	0.0102
RRIRCRPPRLPRPRPRPKIMPRP	-0.622
RRIRCRPPRLPRPRPRPKITPRP	-0.573
RRIRCRPPRLPRPRPRPKLMPRP	-0.0168
RRIRCRPPRLPRPRPRPKMHPRP	-0.121
RRIRCRPPRLPRPRPRPKMLPRP	-0.0357
RRIRCRPPRLPRPRPRPKMQPRP	0.103
RRIRCRPPRLPRPRPRPKNCPRP	0.0619
RRIRCRPPRLPRPRPRPKNMPRP	-0.727
RRIRCRPPRLPRPRPRPKPSPRP	0.136
RRIRCRPPRLPRPRPRPKSSPRP	0.122
RRIRCRPPRLPRPRPRPKSVPRP	0.0362
RRIRCRPPRLPRPRPRPKTCPRP	-0.211
RRIRCRPPRLPRPRPRPKTLPRP	-0.246
RRIRCRPPRLPRPRPRPKTNPRP	0.00906
RRIRCRPPRLPRPRPRPKVDPRP	0.0328

Sequence	shrunken log2 fold change
RRIRCRPPRLPRPRPRPKWAPRP	0.0877
RRIRCRPPRLPRPRPRPKYMPRP	-0.498
RRIRCRPPRLPRPRPRPLAAPRP	0.351
RRIRCRPPRLPRPRPRPLACPRP	-0.236
RRIRCRPPRLPRPRPRPLAFPRP	-0.165
RRIRCRPPRLPRPRPRPLCQPRP	-0.949
RRIRCRPPRLPRPRPRPLDVPRP	-0.41
RRIRCRPPRLPRPRPRPLEAPRP	0.203
RRIRCRPPRLPRPRPRPLEGPRP	0.15
RRIRCRPPRLPRPRPRPLENPRP	-0.102
RRIRCRPPRLPRPRPRPLFAPRP	0.0307
RRIRCRPPRLPRPRPRPLFTPRP	-0.42
RRIRCRPPRLPRPRPRPLFYPRP	-0.764
RRIRCRPPRLPRPRPRPLHEPRP	-0.23
RRIRCRPPRLPRPRPRPLHNPRP	-0.264
RRIRCRPPRLPRPRPRPLHYPRP	-0.352
RRIRCRPPRLPRPRPRPLIHPRP	-0.842
RRIRCRPPRLPRPRPRPLILPRP	-0.373
RRIRCRPPRLPRPRPRPLIWPRP	-0.177
RRIRCRPPRLPRPRPRPLKIPRP	-0.511
RRIRCRPPRLPRPRPRPLLIPRP	-0.4
RRIRCRPPRLPRPRPRPLLRPRP	0.88
RRIRCRPPRLPRPRPRPLMCPRP	-0.306
RRIRCRPPRLPRPRPRPLMEPRP	-0.0946
RRIRCRPPRLPRPRPRPLMTPRP	-0.0133

Sequence	shrunken log2 fold change
RRIRCRPPRLPRPRPRPLNSPRP	-0.605
RRIRCRPPRLPRPRPRPLPVPRP	-0.105
RRIRCRPPRLPRPRPRPLRLPRP	0.0282
RRIRCRPPRLPRPRPRPLSKPRP	-0.103
RRIRCRPPRLPRPRPRPLSRPRP	-0.143
RRIRCRPPRLPRPRPRPLTAPRP	-0.119
RRIRCRPPRLPRPRPRPLWIPRP	-0.166
RRIRCRPPRLPRPRPRPLWMPRP	-0.378
RRIRCRPPRLPRPRPRPLYYPRP	-1.03
RRIRCRPPRLPRPRPRPMASPRP	-0.00968
RRIRCRPPRLPRPRPRPMATPRP	0.0993
RRIRCRPPRLPRPRPRPMCDPRP	0.128
RRIRCRPPRLPRPRPRPMEFPRP	-0.0158
RRIRCRPPRLPRPRPRPMFFPRP	-0.399
RRIRCRPPRLPRPRPRPMFGPRP	-0.556
RRIRCRPPRLPRPRPRPMHEPRP	-0.00208
RRIRCRPPRLPRPRPRPMHIPRP	-0.241
RRIRCRPPRLPRPRPRPMHRPRP	0.0421
RRIRCRPPRLPRPRPRPMKDPRP	-0.594
RRIRCRPPRLPRPRPRPMKQPRP	-0.436
RRIRCRPPRLPRPRPRPMKVPRP	-0.126
RRIRCRPPRLPRPRPRPMMAPRP	0.184
RRIRCRPPRLPRPRPRPMNGPRP	-0.0977
RRIRCRPPRLPRPRPRPMPVPRP	0.161
RRIRCRPPRLPRPRPRPMQHPRP	-0.173

Sequence	shrunken log2 fold change
RRIRCRPPRLPRPRPRPMRFPRP	0.249
RRIRCRPPRLPRPRPRPMSIPRP	-0.484
RRIRCRPPRLPRPRPRPMTCPRP	-0.205
RRIRCRPPRLPRPRPRPMVDPRP	0.02
RRIRCRPPRLPRPRPRPMVFPRP	-0.0164
RRIRCRPPRLPRPRPRPMWSPRP	-0.147
RRIRCRPPRLPRPRPRPMYSPRP	-0.386
RRIRCRPPRLPRPRPRPNCEPRP	0.223
RRIRCRPPRLPRPRPRPNCGPRP	-0.281
RRIRCRPPRLPRPRPRPNCTPRP	-0.322
RRIRCRPPRLPRPRPRPNECPRP	-0.37
RRIRCRPPRLPRPRPRPNGYPRP	-0.122
RRIRCRPPRLPRPRPRPNIKPRP	-0.647
RRIRCRPPRLPRPRPRPNKTPRP	-0.0276
RRIRCRPPRLPRPRPRPNLAPRP	-0.122
RRIRCRPPRLPRPRPRPNLGPRP	-0.283
RRIRCRPPRLPRPRPRPNMWPRP	-0.0109
RRIRCRPPRLPRPRPRPNNIPRP	-0.843
RRIRCRPPRLPRPRPRPNNNPRP	-0.797
RRIRCRPPRLPRPRPRPNPHPRP	-0.158
RRIRCRPPRLPRPRPRPNQHPRP	-0.337
RRIRCRPPRLPRPRPRPNQSPRP	2.47
RRIRCRPPRLPRPRPRPNRPPRP	-0.0846
RRIRCRPPRLPRPRPRPNSDPRP	-0.255
RRIRCRPPRLPRPRPRPNSPPRP	-0.217
